The values that follow come from article PMC11685440.

The test deals with 6xHis-MBP-PmARF1^DBD (Penium margaritaceum AB-class ARF1 DNA-binding domain) (Penium margaritaceum). Put plainly: SEC-MALS; 6xHis-MBP-PmARF1^DBD at 1 mg/ml in 1x PBS, Superdex 200 Increase 10/300 GL, room temperature. For orientation: SEC sorts molecules by how far they enter the pores of the column.

By stoichiometry N is commonly meant a count of units in the complex or per binding partner. The substance “6xHis-MBP-PmARF1^DBD (Penium margaritaceum AB-class ARF1 DNA-binding domain) (domain or fragment)” gave a stoichiometry N of 2.
